Details in all cases: 100 mM Tris-HCl pH 7, 15 mM MgCl2, 37 °C
Substrate in the data set “steady-state kinetics”: O=P(O)(O)OC[C@H]1OC(O)[C@H](O)[C@@H](O)[C@@H]1O
In words: steady-state kinetics. Format: biochemical, Bacillus subtilis.

Substrate in data set [1]: O=[N+]([O-])c1ccc(OP(=O)(O)O)cc1
In words: purified protein.

Substrate in data set [2]: O=P(O)(O)O[C@H]1O[C@H](CO)[C@H](O)[C@H](O)[C@H]1O
Nature of the data set: purified protein.

Substrate in data set [3]: O=C(CO)[C@@H](O)[C@H](O)COP(=O)(O)O
Nature of the data set: purified protein.

B1: AraL (recombinant AraL-His6, pLG11) (Bacillus subtilis subsp. subtilis str. 168; V11M) (protein)
chain: MSPAGILIDLDGTVFRGNELIEGAREAIKTLRRMGKKIVFLSNRGNISRAMCRKKLLGAGIETDVNDIVLSSSVTAAFLKKHYRFSKVWVLGEQGLVDELRLAGVQNASEPKEADWLVISLHETLTYDDLNQAFQAAAGGARIIATNKDRSFPNEDGNAIDVAGMIGAIETSAQAKTELVVGKPSWLMAEAACTAMGLSAHECMIIGDSIESDIAMGKLYGMKSALVLTGSAKQGEQRLYTPDYVLDSIKDVTKLAEEGILI
In the case of B1, the Km in the data set “steady-state kinetics” came to 24.96 ± 4.08 mM; in the data set “purified protein [1]” it was 50.00 ± 23.32 mM; in “purified protein [2]” it was 40.74 ± 6.03 mM; in “purified protein [3]”, 29.14 ± 4.87 mM. The kcat in the data set “steady-state kinetics” stood at 2.49 ± 0.26 s⁻¹; in “purified protein [1]”, 0.012 ± 0.0006 s⁻¹; in “purified protein [2]” it was 4.28 ± 0.4 s⁻¹; in “purified protein [3]”, 2.75 ± 0.26 s⁻¹. In addition, the kcat/Km was determined as 99.8 M⁻¹ s⁻¹ in “steady-state kinetics”, 0.24 M⁻¹ s⁻¹ in the data set “purified protein [1]”, 102 M⁻¹ s⁻¹ in “purified protein [2]” and 94.3 M⁻¹ s⁻¹ in “purified protein [3]”.

For orientation: Km means the substrate concentration at which the rate is half of its maximum. As usually defined, the kcat is the number of substrate molecules converted per active site and unit of time at saturation. The kcat/Km is the turnover number divided by the Michaelis constant.

(Values after paper PMC3207120.)
